Earlier results on one substance are cited in PMC3393814.

In the data set the target is Nrf2 14mer peptide (Homo sapiens). Kind of data set: ITC.

As for Keap1 (from UniProt Q14145), the Kd is 20 nM.

In general, Kd refers to the constant that tells how readily two partners part at equilibrium.
